Test results reported in patent CN113234160A (GUANGZHOU EXCELMAB BIOMEDICAL TECH CO LTD, dated 2021).

Columns and labels:
[1] = molecular target: T1, 人PD-1抗原 (ACRO, Cat.PD-1-H5221) (human, UniProt Q15116 25-167); experiment: indirect ELISA, human PD-1 coated
T1 construct: Bought antigen coated on ELISA plates; also called human PD-1 antigen; hPD-1

[2] = molecular target: T2, 人PD-1抗原 on Jurkat/PD-1 cells (human, UniProt Q15116 25-288); experiment: indirect flow cytometry on Jurkat/PD-1 cells
T2 construct: whole, on cells; Used for the flow cytometry cells and for the Jurkat reporter cells that carry PD-1; also called 过表达人PD-1抗原的Jurkat细胞; Jurkat/hPD-1 NFAT-Luciferase
T2 sequence (Q15116 25-288): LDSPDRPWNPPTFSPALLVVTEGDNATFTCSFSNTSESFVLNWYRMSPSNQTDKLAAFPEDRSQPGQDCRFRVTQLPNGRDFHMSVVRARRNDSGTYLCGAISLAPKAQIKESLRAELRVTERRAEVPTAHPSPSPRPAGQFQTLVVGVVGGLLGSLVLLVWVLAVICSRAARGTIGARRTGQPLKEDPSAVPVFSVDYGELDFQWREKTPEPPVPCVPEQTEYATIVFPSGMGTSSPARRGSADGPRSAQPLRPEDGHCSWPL

T1 sequence (Q15116 25-167 limits assumed): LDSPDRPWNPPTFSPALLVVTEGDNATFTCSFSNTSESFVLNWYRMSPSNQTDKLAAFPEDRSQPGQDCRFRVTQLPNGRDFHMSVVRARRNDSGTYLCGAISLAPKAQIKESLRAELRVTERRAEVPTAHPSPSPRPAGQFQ

binding result [1]: binds
binding result [2]: binds
B1: hmp12 (antibody, V domains shown)
VH: EVQLVESGGGLVKPGGSLRLSCAASGFTFSSYDMSWVRQAPGKGLEWVATISGGGSYTYYADSVKGRFTISRDNAKNSLYLQMNSLRAEDTALYYCASPYAGYFDVWGQGTMVTVSS
VL: DIQMTQSPSSLSASVGDRVTITCSASSSISSNYLHWYQQKPGKAPKLLIYRTSNLQSGVPARFSGSGSGTSYSLTISSLQPEDFATYYCQQGSSIPLTFGQGTKLEIK
notes: also called 人源化抗体hmp12
